The target of assay [1] is human BAFF (human) (UniProt Q9Y275). Kind of assay: shotgun scan, phage display.
For assay [2] the target is unchanged. Description: NNS library, phage display.
Assay [3] deals with Murine APRIL (mouse) (UniProt Q9D777). Kind of assay: shotgun scan, phage display.
Assay [4] shares this target. Description: NNS library, phage display.

human BAFF (human), sequence (Q9Y275 82-285 limits assumed): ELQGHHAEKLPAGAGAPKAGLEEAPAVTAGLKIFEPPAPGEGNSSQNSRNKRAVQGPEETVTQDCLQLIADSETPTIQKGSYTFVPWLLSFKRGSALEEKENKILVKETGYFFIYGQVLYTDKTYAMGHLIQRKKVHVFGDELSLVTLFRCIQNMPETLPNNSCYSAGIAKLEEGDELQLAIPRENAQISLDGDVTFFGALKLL
Murine APRIL (mouse), sequence (Q9D777 105-241 limits assumed): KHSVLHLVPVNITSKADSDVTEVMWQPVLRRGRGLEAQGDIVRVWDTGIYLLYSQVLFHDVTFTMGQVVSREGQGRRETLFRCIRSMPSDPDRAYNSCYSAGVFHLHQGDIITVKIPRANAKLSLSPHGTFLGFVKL

In turn, SLSCRKEQGKFYDHLLRDCISCASICGPHPKQCAYFCENKLR (receptor) [TACI_d2 Q95P] returned a F (BAFF) in assay [1] above 54.

The molecule SLSCRKEQGKFYDHLPRDCISCASICGQHPKQCAYFCENKLR (receptor) [TACI_d2 L83P] returned a F (BAFF) in assay [1] of 15.

As to SLSCRKEQGKFYDHLLRDCISCASICGQDPKQCAYFCENKLR (receptor) [TACI_d2 H96D], the F (BAFF) in assay [1] is above 29.

On to SLSCRKEQGKFSDHLLRDCISCASICGQHPKQCAYFCENKLR (receptor) [TACI_d2 Y79S], for which the F' BAFF in assay [2] is 0. This molecule also gave a F (BAFF) in assay [1] above 36.

Take SLSCRKEQGKFYDHLLGDCISCASICGQHPKQCAYFCENKLR (receptor) [TACI_d2 R84G]: the F' BAFF in assay [2] was determined as 0. This molecule gave a F (BAFF) in assay [1] of 13.

SLSCRKEQGKFYDHLLRDCISCASICGQPPKQCAYFCENKLR (receptor) [TACI_d2 H96P] showed a F (APRIL) in assay [3] of 48. The molecule further came in with a F (BAFF) in assay [1] of 20.

As for SLSCRKEQGKFYDHLLPDCISCASICGQHPKQCAYFCENKLR (receptor) [TACI_d2 R84P], the F' BAFF in assay [2] was determined as 0. Besides, the F (BAFF) in assay [1] was above 52.

With SLSCRKEQGKFDDHLLRDCISCASICGQHPKQCAYFCENKLR (receptor) [TACI_d2 Y79D], the F' APRIL in assay [4] is 0. Moreover, the F' BAFF in assay [2] is 0. Moreover, the F (APRIL) in assay [3] was above 8.2. In addition, the F (BAFF) in assay [1] was above 9.5.

These data come from patent publication US20080181886A1, “Polypeptides That Bind Baff And/Or April” (Genentech, Inc., priority 2004, published 2008).
